Molecular target: the molecule itself
Assay: immunoblot of cell lysates after SDS-PAGE (dimer band); INS-1 832/13 cells infected with Ad-SENP1, incubated in KRBH buffer with or without H2O2 (legend: 200 µM; methods: 1 mM) for 30 min at 37 °C; lysed in Cell-Lytic-M with DTT; 8% SDS-PAGE; blot with anti-SENP1 (C12)

B1: SENP1 (sentrin-specific SUMO protease 1) (enzyme, UniProt Q9P0U3 1-644, looked up)
chain: MDDIADRMRMDAGEVTLVNHNSVFKTHLLPQTGFPEDQLSLSDQQILSSRQGHLDRSFTCSTRSAAYNPSYYSDNPSSDSFLGSGDLRTFGQSANGQWRNSTPSSSSSLQKSRNSRSLYLETRKTSSGLSNSFAGKSNHHCHVSAYEKSFPIKPVPSPSWSGSCRRSLLSPKKTQRRHVSTAEETVQEEEREIYRQLLQMVTGKQFTIAKPTTHFPLHLSRCLSSSKNTLKDSLFKNGNSCASQIIGSDTSSSGSASILTNQEQLSHSVYSLSSYTPDVAFGSKDSGTLHHPHHHHSVPHQPDNLAASNTQSEGSDSVILLKVKDSQTPTPSSTFFQAELWIKELTSVYDSRARERLRQIEEQKALALQLQNQRLQEREHSVHDSVELHLRVPLEKEIPVTVVQETQKKGHKLTDSEDEFPEITEEMEKEIKNVFRNGNQDEVLSEAFRLTITRKDIQTLNHLNWLNDEIINFYMNMLMERSKEKGLPSVHAFNTFFFTKLKTAGYQAVKRWTKKVDVFSVDILLVPIHLGVHWCLAVVDFRKKNITYYDSMGGINNEACRILLQYLKQESIDKKRKEFDTNGWQLFSKKSQEIPQQMNGSDCGMFACKYADCITKDRPINFTQQHMPYFRKRMVWEILHRKLL
notes: The adenovirus co-expresses GFP to identify infected cells; also called Ad-SENP1
- stoichiometry N: 2
